Results taken from patent EP1752160A2 (Mannkind Corporation, dated 2007).

B1: PSMA663-671 (peptide)
peptide: MMNDQLMFL
notes: 9-mer of prostate specific membrane antigen
B2: tyrosinase208-216 (peptide)
peptide: LPWHRLFLL
notes: Synthetic 9-mer of tyrosinase; also called Tyr 208-216
B3: tyrosinase207-215 (peptide)
peptide: FLPWHRLFL
notes: Synthetic 9-mer of tyrosinase; also called Tyr 207-215

Columns and labels:
[1] = target: T1, HLA-A2.1 (human); experiment: T2 cell HLA-A*0201 stabilisation assay, flow cytometry
T1 construct: also called HLA-A*0201; HLA-A0201

[2] = target: T1, HLA-A2.1; experiment: T2 cell HLA-A2.1 stabilisation assay, flow cytometry
[3] = target: T1, HLA-A2.1; experiment: HLA-A2 binding assay on T2 cells, flow cytometry

Binder | binding result [3] | further results
B1 |  | binding result [1]: binds
KASEKIFYV (Synthetic 9-mer of SSX-2) [SSX-2 41-49] |  | binding result [2]: binds
B2 | binds | 
B3 | binds | 
